We go through two substances from paper doi:10.1101/2020.06.22.20137695.

The target in test [1] is MERS-CoV spike protein, recombinant soluble ectodomain trimer (MERS-CoV) (UniProt K9N5Q8). In words: SEC. (In gel filtration, larger molecules generally elute earlier.)
Test [2] addresses SARS-CoV spike protein, recombinant soluble ectodomain trimer (SARS-CoV) (UniProt P59594). In words: SEC.

The term stoichiometry N denotes a count of units in the complex or per binding partner. In the case of “MERS-CoV spike protein, recombinant soluble ectodomain trimer (from UniProt K9N5Q8 18-1296) (domain or fragment)”, the stoichiometry N in test [1] is 3.

As for “SARS-CoV spike protein, recombinant soluble ectodomain trimer (from UniProt P59594 14-1195) (domain or fragment)”, in test [2], the stoichiometry N was found to be 3.
